Reference: paper PMC2553836, “Control of Jasmonate Biosynthesis and Senescence by miR319 Targets”

Molecular target: T1, TCP4 N-terminal fragment (pRSETC-TCP4-1, TCP4-N224) (Arabidopsis thaliana, UniProt Q8LPR5 1-224)
T1 sequence: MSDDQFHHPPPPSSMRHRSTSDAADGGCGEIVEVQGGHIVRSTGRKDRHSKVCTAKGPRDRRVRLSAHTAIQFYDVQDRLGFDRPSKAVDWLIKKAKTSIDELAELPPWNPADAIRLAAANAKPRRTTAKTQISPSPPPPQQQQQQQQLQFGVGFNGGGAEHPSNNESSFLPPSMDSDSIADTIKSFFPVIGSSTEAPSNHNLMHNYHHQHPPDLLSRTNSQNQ
Experiment: EMSA; 20 mM HEPES-KOH pH 7.8, 100 mM KCl, 1 mM EDTA, 0.1% BSA, 10 ng herring sperm DNA, 10% glycerol, ~10 fmol probe, 5-100 ng protein in 10 ul, 30 min room temperature; 6% native gel, 0.5x TBE
Conditions: protein: recombinant; tags: His; chain copies: 2; label: 32P-dCTP (Klenow) as probe

B1: TCP4 consensus wild type (dsDNA)
DNA 1: AGATGGGGGACCACATAGATGT
DNA 2: ACATCTATGTGGTCCCCCATCT
binding result: binds
